PMC8811534

Biological target: hAGO2 (human, UniProt Q9UKV8 1-859)
Assay: EMSA

Chain of hAGO2 (Q9UKV8 whole entry): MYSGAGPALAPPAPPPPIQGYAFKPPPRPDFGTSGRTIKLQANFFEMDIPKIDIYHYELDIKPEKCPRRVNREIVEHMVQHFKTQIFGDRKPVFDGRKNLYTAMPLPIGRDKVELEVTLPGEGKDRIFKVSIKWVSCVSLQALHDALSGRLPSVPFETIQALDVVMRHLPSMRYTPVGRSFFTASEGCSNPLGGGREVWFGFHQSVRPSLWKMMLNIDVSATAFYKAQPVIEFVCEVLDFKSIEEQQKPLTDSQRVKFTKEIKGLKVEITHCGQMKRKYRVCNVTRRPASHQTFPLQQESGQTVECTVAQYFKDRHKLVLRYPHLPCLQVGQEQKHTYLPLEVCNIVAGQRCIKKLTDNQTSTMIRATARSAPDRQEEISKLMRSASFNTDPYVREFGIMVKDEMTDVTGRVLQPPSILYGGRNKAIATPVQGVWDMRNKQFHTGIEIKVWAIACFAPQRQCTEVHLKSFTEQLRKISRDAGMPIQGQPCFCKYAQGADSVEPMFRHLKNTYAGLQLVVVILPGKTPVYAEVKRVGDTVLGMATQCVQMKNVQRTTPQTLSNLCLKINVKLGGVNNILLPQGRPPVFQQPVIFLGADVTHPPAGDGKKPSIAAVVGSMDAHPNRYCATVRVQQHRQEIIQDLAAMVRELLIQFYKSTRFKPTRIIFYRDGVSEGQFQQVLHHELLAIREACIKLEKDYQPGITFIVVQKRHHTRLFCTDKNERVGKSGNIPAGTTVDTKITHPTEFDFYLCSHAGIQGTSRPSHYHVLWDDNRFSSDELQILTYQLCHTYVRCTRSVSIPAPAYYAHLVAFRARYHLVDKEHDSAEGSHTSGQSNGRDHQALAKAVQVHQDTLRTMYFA

B1: 5'Cy5-HIS-SARS2-1 DNA-RNA hybrid (DNA:RNA)
DNA: AGCCTTTACCTCCATTAGCATAGACA
RNA: UGUCUAUGCUAAUGGAGGUAAAGGCU
binding result: binds
